In patent publication US20240287172A1 (SCIRHOM, published 2024):
Where a chain is given by its changes, count along the chain named.

Key:
[1] = target: T1, hiR2-FL-H590A-T7 (human, UniProt Q6PJF5 1-856); assay: FACS on MEF-DKO cells expressing the variant, 3 µg/ml antibody
T1 sequence: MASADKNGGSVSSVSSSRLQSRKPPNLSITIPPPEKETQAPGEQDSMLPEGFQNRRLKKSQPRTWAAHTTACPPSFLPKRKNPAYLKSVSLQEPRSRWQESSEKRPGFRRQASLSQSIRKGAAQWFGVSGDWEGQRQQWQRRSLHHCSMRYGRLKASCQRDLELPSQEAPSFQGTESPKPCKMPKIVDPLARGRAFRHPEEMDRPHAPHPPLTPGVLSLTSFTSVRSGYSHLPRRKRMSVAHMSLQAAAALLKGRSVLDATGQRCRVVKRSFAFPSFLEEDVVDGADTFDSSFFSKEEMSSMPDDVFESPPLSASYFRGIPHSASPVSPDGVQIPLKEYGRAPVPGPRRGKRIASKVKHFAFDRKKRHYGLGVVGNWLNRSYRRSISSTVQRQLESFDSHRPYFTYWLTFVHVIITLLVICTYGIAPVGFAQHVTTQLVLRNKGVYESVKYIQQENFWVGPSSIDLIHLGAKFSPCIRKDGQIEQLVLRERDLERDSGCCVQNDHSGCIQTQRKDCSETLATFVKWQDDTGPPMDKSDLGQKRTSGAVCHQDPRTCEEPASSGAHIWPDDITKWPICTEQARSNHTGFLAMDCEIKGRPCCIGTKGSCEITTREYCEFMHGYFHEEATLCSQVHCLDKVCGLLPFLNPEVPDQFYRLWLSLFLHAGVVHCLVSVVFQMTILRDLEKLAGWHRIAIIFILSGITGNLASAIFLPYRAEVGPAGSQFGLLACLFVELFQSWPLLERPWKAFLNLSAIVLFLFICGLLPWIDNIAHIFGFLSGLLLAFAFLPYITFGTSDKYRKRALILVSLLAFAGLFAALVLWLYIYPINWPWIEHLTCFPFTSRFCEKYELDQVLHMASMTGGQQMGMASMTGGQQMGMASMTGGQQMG
Procedure, shortened: (§1)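 Read-out is PE fluorescence by flow cytometry after two-step staining: antibody at 3 μg/ml for 1 hour on ice, then PE-labelled goat anti-mouse IgG F(ab′)2 (1:100) for 1 hour on ice.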

[2] = target: T2, hiR2-FL-K525A-T7 (human, UniProt Q6PJF5 1-856); assay: as above
T2 sequence: T1 sequence with K525A, A590H
Procedure, shortened: as §1

B1: antibody 48 (antibody, V domains shown)
VH: QVQLQQSGTELVRPGTSVKVSCKASGYAFTNYLIEWVKQRPGQGLEWIGVINPGSGFTKYNEKFKGKATLTADKSSSTVYMHLSSLTSEDSAVYFCARGLYRAMDYWGQGTSVTVSS
VL: DIQMTQSPASQSASLGESVTITCLASQTIATWLAWYQQKPGKSPQLLIYGATTLADGVPSRFSGGGSGTKFSFKISSLQAEDFVSYYCQQLYSTPYTFGGGTKLEIK
notes: mouse IgG, kappa light chain; also called clone #48; purified antibody 48
[1]
  loss of binding vs wild type: ≥ 30%
[2]
  loss of binding vs wild type: ≥ 30%
